Results published in US20120083423.

Molecular target: autoantibodies to BRAF purified from the sera of RA patients

B1: BRAF (protein)
chain: LQKSPGPQRERKSSSSSEDRNRMKTLGRRDSSDDWEIPDGQITVGQRIGSGSFGTVYKGKWHGDVAVKMLNVTAPTPQQLQAFKNEVGVLRKTRHVNILLFMGYSTKPQLAIVTQWCEGSSLYHHLHIIETKFEMIKLIDIARQTAQGMDYLHAKSIIHRDLKSNNIFLHEDLTVKIGDFGLATVKSRWSGSHQFEQLSGSILWMAPEVIRMQDKNPYSFQSDVYAFGIVLYELMTGQLPYSNINNRDQIIFMVGRGYLSPDLSKVRSNCPKAMKRLMAECLKKKRDERPLFPQILASIELLARSLPKIHRSASEPSLNRAGFQTEDFSLYACASPKTPIQAGGYGAFPVH
  phosphorylation of MEK1 by BRAF: 80% of anti-BRAF autoantibodies activate phosphorylation of MEK1 by BRAF in vitro
